In US11466255B2, “Methods and compositions for converting non-endocrine pancreatic tissue into insulin-producing cells” (UNIVERSITY OF MIAMI, priority 2015, dated 2022):

What was measured:
[1] = tested on: hNEPT; assay: TLDA qRT-PCR gene expression in BMP-7-treated hNEPT; format: cell-based, human; conditions: BMP-7-treated vs untreated control
Method: The expression of 43 genes (including epithelial, acinar, islet and mesenchymal cell markers) was studied in hNEPT preparations (n=8) treated with BMP-7 and untreated controls at the same time point. […] GCK, MAFA and NKX6.1, as well as islet development markers HNF1B and NEUROD1 were also elevated.
hNEPT culture: Human islets were isolated at the DRI's cGMP facility following methods already described54, and hNEPT samples (2-4 ml) were obtained as an isolation byproduct. The cells were washed and seeded on tissue culture-treated plates in FBS- and trypsin inhibitor-supplemented RPMI 1640 medium (Gibco-Life Technologies, Grand Island, N.Y.). After 48 h, floating cells were removed with fresh medium replacement. The following day, cultures were either treated with 100 ng/ml BMP-7 (ProSpec-Tany TechnoGene; Ness Ziona, Israel) or remained in the starting medium as controls. Cells were allowed to grow 4-5 days and then the serum-containing medium was replaced by serum-free Advanced RPMI 1640 (Gibco-Life Technologies, Grand Island, N.Y.). Four to five days later the cells were either subjected to static incubation to evaluate their ability to respond to changing glucose concentration or collected for further assessments (such as C-peptide content, immunohistochemistry or cellular composition) or transplantation.
Quantitative Real Time RT-PCR: Samples were washed in PBS and resuspended in RNA later (Life Technologies—Ambion, Grand Island, N.Y.). RNA was extracted with the mirVana kit (Life Technologies-Applied Biosystems, Grand Island, N.Y.). 2 ng/μl of RNA was used for cDNA synthesis using High-Capacity cDNA Kit (Life Technologies-Applied Biosystems, Grand Island, N.Y.). Quantitative RT-PCR was performed with TaqMan assays (Life technologies—Applied Biosystems, Grand Island, N.Y.) following manufacturer's instructions. RNA expression was calculated as Relative Quantification (RQ) by Applied Biosystems software using the formula RQ=2−ddCT (ddCT=dCT of the sample−dCT of the control). dCT is the number of cycles normalized by endogenous control. Individual reactions were performed with a 7500 Fast Real Time PCR system (Life Technologies). Some experiments were performed using custom-made Taqman® Low Density Microarray (TLDA) cards containing 43 target genes and 3 endogenous genes (ubiquitin C, 18S rRNA and beta actin) and ran in a 7900 Real time PCR cycler (Life Technologies). Cts >35 were considered undetermined.

[2] = tested on: nude rat (RNU) grafts; assay: Local BMP-7 delivery to hNEPT or PR2Y1+/ALK3+ cells under kidney capsule of nude rats; format: in vivo; conditions: POD +21
Text: The nude rat (RNU, Crl:NIH-Foxn1^rnu) is chosen over mice due to the specific BMP-7 local delivery system designed for this purpose, requiring surgical procedures for which a larger animal size would be beneficial. […] The kidney sub-capsular space of rodents is a well-established ectopic site for pancreatic cell (and particularly islet) transplantation^54,55. There are reports of success in the continuous delivery of compounds to pancreatic cells previously implanted under the kidney capsule of rats^38 using Alzet® osmotic pumps that release solution at a rate of 0.5 μl/h for 2 weeks.
While exocrine and endocrine cells coexist in the pancreas, cultured hNEPT lack native ECM for proper compartmentalization, and acinar secretions may be harmful for endocrine cells^37. Acinar cells present in hNEPT after BMP-7 treatment persist in grafts^17. This observation was hypothesized to be one reason behind the sub-optimal performance of BMP-7-treated hNEPT in vivo (see Example 2). […] The first phase of these studies transplants unfractionated hNEPT (0.5-1×10^7 cells) previously grown for 48h in attachment (prior to BMP-7 treatment) under the kidney capsule of nude rats. […] Rats are euthanized at POD +21 and their grafts analyzed by IF for C-peptide as well as the 15 pancreatic marker panel of Example 8. […]

[3] = tested on: stz-treated mice; conditions: systemic BMP-7; cited from earlier work

B1: BMP-7: 35 kDa homodimeric protein of the TGF-β superfamily; FDA-approved agent; human mature chain SEQ ID NO:1/2 (protein, listed as Homo sapiens)
chain: IRSTGSKQRSQNRSKTPKNQEALRMANVAENSSSDQRQACKKHELYVSFRDLGWQDWIIAPEGYAAYYCEGECAFPLNSYMNATNHAIVQTLVHFINPETVPKPCCAPTQLNAISVLYFDDSSNVILKKYRNMVVRACGCH
modifications: homodimer; human mature chain of BMP-7 (NCBI Reference Sequence NM_001719.2) comprising peptide from 293-431
[1]
  GCK, MAFA, NKX6.1, HNF1B and NEUROD1 expression: elevated
  extra-insular genes KRT-19, CPA1 and PNLIP expression: up-regulation
[1]; P<0.05
  ZEB2 expression (up-regulated): 1.6 fold
[1]; p<0.01
  E-cadherin (CDH1) expression (up-regulated): 6 fold
  EMT marker ZEB1 expression (down-regulated): 0.4 fold
[1]; same time point, n=8
  PDX1 gene expression, average increase: 29 fold
  glucagon gene expression, average increase: 92 fold
  insulin gene expression, average increase: 40 fold
  pancreatic polypeptide (PPY) gene expression, average increase: 14 fold
  somatostatin (SST) gene expression, average increase: 28 fold
[2]; PR2Y1+/ALK3+ cell graft, BMP-7 by iPRECIO pump
  islet-like structures within the graft: abundant islet-like structures within the graft
[2]; unfractionated hNEPT graft, BMP-7 by pump for 14 d
  in vivo β-like cell formation compared to controls: Substantial in vivo β-like cell formation
[3]
  effect on hyperglycemia of stz-treated mice: corrected the hyperglycemia
